Measured values as given in patent US12043827B2, “Compositions, systems, and methods for base diversification” (Pairwise Plants Services, Inc., priority 2020, dated 2024).
Entries after “also recorded” stand apart in the source; their conditions may differ.

B1: CjMPG: truncated MPG of Callithrix jacchus, SEQ ID NO:88, fused to C-terminus of ABE8e (protein, listed as Callithrix jacchus)
chain: KGYLTRLGSEFFDQPAVTLAQAFLGQVLVRRLPNGTELRGRIVETEAYLGPEDEAAHSRGGRQTPRNRGMFMKPGTLYVYIIYGMYFCMNISSQGDGACVLLRALEPLEGLETMRQLRSTLRKGTASRVLKDRELCSGPSKLCQALAIDKSFDQRDLAQDEAIWLEHGPLEPSGPTVVAAARVGIGYAGEWSRKPLRFYVRGSPWVSVVDRVAEQDAQA
B2: CgMPG: truncated MPG of Cricetulus griseus, SEQ ID NO:86, fused to C-terminus of ABE8e (protein, listed as Cricetulus griseus)
chain: EDHPARLGPEFFDQPAVTLARAFLGQVLVRRLADGTELRGRIVETEAYLGPEDEAAHSRGGRQTPRNRGMFMKPGTLYVYIIYGMYFCLNVSSQGAGACVLLRALEPLEGLDTMRQLRSTLRKSTVSRTLKDRELCSGPSKLCQALAIDKSFDQRDLTQDEAVWLEHGPLATGSPAVVAAARIGIGHAGEWTQKPLRFYVQGSPWVSVVDRVAEQMCQPQQTA
B3: SpThp1: uracil DNA glycosylase with activity towards inosine from Schizosaccharomyces pombe, SEQ ID NO:79 (protein)
chain: MNDIETRDTGTKNDNSSEFNLSVKSHKRKRSFDDENLELEESREETSGGILKKAKTQSFSESLERFRFAHAGSNNEYRKTDVVKNSDTDNGLLKSAVETITLENGLRNRRVNVTKKSTLKASVKKSTLKKKNEVDPALLQGVPDYICENPYAIIVGLNPGITSSLKGHAFASPSNRFWKMLNKSKLLEGNAEFTYLNDKDLPAHGLGITNLCARPSSSGADLRKEEMQDGARILYEKVKRYRPQVGLFISGKGIWEEMYKMLTGKKLPKTFVFGWQPEKFGDANVFVGISSSGRAAGYSDEKKQNLWNLFAEEVNRHREIVKHAV
modifications: Schizosaccharomyces pombe
B4: ClMPG: truncated MPG of Canis lupus, SEQ ID NO:87, fused to C-terminus of ABE8e (protein, listed as Canis lupus)
chain: KSHSAQLGSDFFDQPAVALARAFLGQVLVRRLDDGTELRGRIVETEAYLGPEDEAAHSRGGRQTPRNRGMFMKPGTLYVYIIYGMYFCLNVSSQGDGACVLLRALEPLGGLETMRQLRSTLRKGTTGRALKDRELCSGPSKLCQALAIDKSFDQRDLAKDRAVWLERSPPGPSEPAVVAAARVGIGHAGEWAQKPLRFYLRGSPWVSVVDRAAEQNAQA
B5: mMPG: methylpurine glycosylase from Mus musculus, SEQ ID NO:83, UniProtKB Q04841 (protein, listed as Mus musculus)
chain: MPARGGSARPGRGALKPVSVTLLPDTEQPPFLGRARRPGNARAGSLVTGYHEVGQMPAPLSRKIGQKKQRLADSEQQQTPKERLLSTPGLRRSIYFSSPEDHSGRLGPEFFDQPAVTLARAFLGQVLVRRLADGTELRGRIVETEAYLGPEDEAAHSRGGRQTPRNRGMFMKPGTLYVYLIYGMYFCLNVSSQGAGACVLLRALEPLEGLETMRQLRNSLRKSTVGRSLKDRELCSGPSKLCQALAIDKSFDQRDLAQDDAVWLEHGPLESSSPAVVVAAARIGIGHAGEWTQKPLRFYVQGSPWVSVVDRVAEQMDQPQQTACSEGLLIVQK
B6: APOBEC1: cytosine deaminase fused to MCP, recruited towards Cas9 nickase (D10A) by gRNA with 2×MS2 hairpins (protein, listed as Rattus norvegicus)
chain: SSETGPVAVDPTLRRRIEPHEFEVFFDPRELRKETCLLYEINWGGRHSIWRHTSQNTNKHVEVNFIEKFTTERYFCPNTRCSITWFLSWSPCGECSRAITEFLSRYPHVTLFIYIARLYHHADPRNRQGLRDLISSGVTIQIMTEQESGYCWRNFVNYSPSNEAHWPRYPHLWVRLYVLELYCIILGLPPCLNILRRKQPQLTFFTIALQSCHYQRLPPHILWATGLK

How the values were obtained:
Format in all cases: cell-based
APE1 = target: T1, APE1 (Homo sapiens, UniProt P27695); experiment: APE1 inhibitor effect on base diversification and indels, AID or pmCDA1 fused to Cas9 nickase (D10A), HTS in HEK293T cells; conditions: 100 μM and 200 μM, 3 d
T1 construct: endogenous in cells; host or cells: HEK293T
Method: APE1 was inhibited by using CRT0044876 (Scheme 1), which is a potent and well-known APE1 inhibitor.
To ascertain whether this compound improves base diversification profile, HEK293T cells were treated with AID or pmCDA1 fused to Cas9 nickase (D10A) in the presence of CRT0044876. After 3 d, the cells were harvested and analyzed through high-throughput sequencing (HTS).

[1] = system: Sites 1-4 (SEQ ID NO:131-134); experiment: Fusion architecture for adenine diversifiers (ABE8.20m N- or C-terminal glycosylase fusions), HTS in HEK293T cells; conditions: four guide RNAs, 3 days, FIG. 9
Method: Several glycosylase domains were fused to either the N-terminus or C-terminus of ABE8.20m (SEQ ID NO:57). For the N-terminal fusions to ABE8.20m, the deaminase was between the glycosylase domain and CRISPR-Cas effector protein, and, for the C-terminal fusions to ABE8.20m, the CRISPR-Cas effector protein was between the glycosylase domain and deaminase. Three putative inosine glycosylases were tested, which are: hMPG, a methylpurine glycosylase (MPG) from Homo sapiens (SEQ ID NO:84, UniProtKB—P29372); mMPG from Mus musculus (SEQ ID NO:83, UniProtKB—Q04841); and SpThp1, a known uracil DNA glycosylase that also has activity towards inosine, from Schizosaccharomyces pombe (SEQ ID NO:79, UniProtKB—O59825) (Alseth et al. Nucleic Acids Research 2005, 33(3) 1123-1131).
The following plasmids were transfected into HEK293T cells: a plasmid encoding ABE8.20m or a fusion protein including ABE8.20m fused to one of the above inosine glycosylases, and a plasmid encoding a guide RNA. […] Four guide RNAs were tested corresponding to the following four target nucleic acids (i.e., sites): Site 1: […] (SEQ ID NO:131), Site 2: […] (SEQ ID NO:132), Site 3: […] (SEQ ID NO:133), and Site 4: […] (SEQ ID NO:134). After three days, the editing efficiency was measured by high throughput sequencing of targeted loci.

[2] = system: several genomic sites in HEK293T cells (target nucleic acid of SEQ ID NO:132); experiment: Deaminase screen for base diversification, MCP-deaminase recruited to Cas9 nickase (D10A), HTS in HEK293T cells; conditions: MCP fusion recruited to Cas9 nickase (D10A) by 2xMS2 gRNA, no UGI, FIG. 4
Method: They were fused to MCP (MS2 […]) at the N-terminus, and recruited towards Cas9 nickase (D10A) by using gRNA fused to 2×MS2 hairpins. They were assayed against several genomic sites in HEK293T cells. Base conversion profiles were analyzed by high-throughput sequencing and the results are shown in FIG. 4 for the target nucleic acid of SEQ ID NO:132.
AP endonuclease I (APE1) is an enzyme within the base excision repair pathway that cleaves the phosphodiester bond at the abasic site, generating a nick in the base-edited strand. […] In constructs lacking UGI, base diversification is usually accompanied with indels. For example, in all target sites described above, about 5-20% of products contain indels, which lowers the efficiency of base diversification (FIG. 5).

endogenous loci = experiment: Transversion mutations from adenine: ABE7.10 with inosine glycosylases (fusion or in trans), HTS in HEK293T cells; conditions: fusion constructs and co-transfected constructs with ABE7.10, FIGS. 7A-7B and 8A-8B
Description: The experiment was designed to generate transversion mutations from adenines by promoting inosines to undergo the same cellular DNA repair pathways that generate transversion mutations during translesion-bypass polymerization in cytosine base editing. While not wishing to be bound to any particular theory, it was hypothesized that the key step was to facilitate the glycosylation of inosines generated during adenine base editing. It was hypothesized that once glycosylated, the resulting abasic site can be a substrate for translesion-bypass repair and that this would lead to transversion mutations. Exogenous inosine glycosylases were provided along with ABE to promote inosine glycosylation.
Several inosine glycosylases were screened in HEK293T cells and it was determined whether they were capable of acting on inosines generated by ABE. If inosine is converted into an abasic site, and subsequently repaired through translesion-bypass polymerization, transversion mutations can be generated from adenines.
Five different glycosylases from various species were selected for testing. The following genes were codon-optimized and cloned into a mammalian expression vector, either as unfused gene, or as a C-terminal fusion to ABE7.10 (species source in parenthesis); hMPG (Homo sapiens) having an amino acid sequence of SEQ ID NO:84, mMPG (Mus musculus) having an amino acid sequence of SEQ ID NO:83, rMPG (Rattus norvegicus) having an amino acid sequence of SEQ ID NO:80, SpThp1 (Schizosaccharomyces pombe) having an amino acid sequence of SEQ ID NO:79, MaHDG (Methanosarcina acetivorans) having an amino acid sequence of SEQ ID NO:81, and MbHDG (Methanosarcina barkeri) having an amino acid sequence of SEQ ID NO:82. […] The HEK293T cells were transfected with a plasmid encoding gRNA targeting endogenous loci and either the fusion plasmid or a mixture of plasmids expressing ABE7.10 and the above inosine glycosylases. After 3 days, high-throughput sequencing was used to determine the editing result of targeted adenines. Mock transfection (using pUC19) was used to set baseline editing. All conditions that used ABE7.10 generated 10-20% guanine transition, as expected.

[3] = system: Sites 1-5 (SEQ ID NO:131, 134, 133, 140, 132); experiment: Inosine glycosylase homolog testing, C-terminal fusions to ABE8e; conditions: C-terminal fusion to ABE8e, Sites 1-5, FIG. 16

T1 sequence (P27695 whole entry, the tested form may be a part): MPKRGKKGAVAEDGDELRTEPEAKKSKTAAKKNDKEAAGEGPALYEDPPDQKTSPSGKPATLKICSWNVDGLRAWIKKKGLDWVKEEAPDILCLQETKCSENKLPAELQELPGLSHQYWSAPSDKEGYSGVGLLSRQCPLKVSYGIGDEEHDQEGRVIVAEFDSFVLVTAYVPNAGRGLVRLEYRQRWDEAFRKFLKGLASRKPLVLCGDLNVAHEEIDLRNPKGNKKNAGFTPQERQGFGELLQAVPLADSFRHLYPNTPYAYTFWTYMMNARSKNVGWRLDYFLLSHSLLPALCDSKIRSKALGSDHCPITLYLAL

Molecule | generation of C and T bases from adenine over background (endogenous loci) | adenine to C or T editing activity of adenine diversifiers [3] | also measured
O=C(O)c1cc2cccc([N+](=O)[O-])c2[nH]1 [CRT0044876] |  |  | base diversification rate (APE1; FIGS. 6A and 6C): some decrease in base diversification rate was also observed; amount of indel generated (APE1; multiple target sites, FIGS. 6B and 6D): significant decrease in the amount of indel generated across multiple target sites; also recorded: reduces the rate of indel mutations
ABE8.20m: adenine base editor, SEQ ID NO:57, without glycosylase domain |  |  | A to C or T change of target adenine [1]: negligible A to C or T change
APOBEC3A: cytosine deaminase fused to MCP, recruited towards Cas9 nickase (D10A) by gRNA with 2×MS2 hairpins |  |  | conversion of C into G, T, and A within the base editing window [2]: robustly converts C into G, T, and A nucleotides within the base editing window
hMPG: methylpurine glycosylase from Homo sapiens, SEQ ID NO:84, UniProtKB P29372 | significant amount of C and T bases over background |  | 
B1 |  | displayed the highest activity | 
B2 |  | displayed the highest activity | 
B3 | significant amount of C and T bases over background |  | 
B4 |  | displayed the highest activity | 
B5 | significant amount of C and T bases over background |  | 
B6 |  |  | conversion of C into G, T, and A within the base editing window [2]: robustly converts C into G, T, and A nucleotides within the base editing window
